Source: the RNAGym collection of RNA variant scans (doi:10.1021/acssynbio.7b00057)

B1: Pistol ribozyme (parent)
chain: GGGUCGUUGUUCCAUAAUCGCGUGGAUAUGGCACGCAAGUUUCUACCGGGCACCGUAAAUGUCCGACUGGAGCCGUUCGGGCGGCUAUAAACAGACCUCAGGCCCGAAGCGUGGCGGCACCUGCCGCCGGUGGUAAAAAAGAUCGGAAGAGCACACGUCU

Variants of: B1
Assay: aptazyme ON/OFF ratio, guanine; higher = stronger switching; co-transcriptional cleavage with and without guanine

In order of rising “aptazyme ON/OFF ratio” value:
1. G9A U10C U11C C13U  1.01
2. U8G U10G U11C C12U  1.02
3. G9A U10C C13G  1.03
4. U8G U11G C13U  1.03
5. U8G U10C U11C C13G  1.03
6. U8G U10C U11C C13A  1.03
7. U8G U11G C13A  1.04
8. U8G U10C U11C C13U  1.04
9. U8G U11G C13G  1.05
10. G9A U10C U11C  1.06
11. U8G U10G U11C C12A  1.06
12. G9A U10C U11C C13G  1.07
13. G9A U10C C13A  1.08
14. U8G U11G C12G C13G  1.08
15. U8G U11G C12G C13A  1.08
16. U8G U10C U11C C12U C13U  1.09
17. U8G U11A C12G C13U  1.09
18. U8G U11A C12G C13G  1.09
19. U8G U10G U11G C12G C13G  1.1
20. U8G U11A C12G C13A  1.1
21. U8G U10G U11C C12G  1.11
22. U8G U10G C13U  1.11
23. G9A C12A C13G  1.12
24. G9A U10C U11C C12A C13A  1.12
25. U8G U11A C12U C13G  1.12
26. G9A U10C U11C C12G C13U  1.14
27. G9A U10C U11A C12G C13A  1.14
28. U8G U10C U11A C12U C13G  1.14
29. U8G U10C U11C C12U C13A  1.14
30. G9A U10A C13G  1.14
31. U8G U10G U11G C12G C13A  1.15
32. G9A U10G U11C C12A C13G  1.15
33. U8G U10G C13A  1.15
34. G9A U10C U11C C12G C13A  1.16
35. G9A U10C U11C C12A C13G  1.18
36. G9A U10C U11G C13G  1.18
37. G9A U10G U11C C12A C13A  1.18
38. U8G U11A C12U C13A  1.18
39. G9A U10C C12A C13U  1.19
40. G9A U10C U11C C12G C13G  1.2
41. G9A U10A U11A C12G C13G  1.2
42. U8G U11G C12G C13U  1.2
43. U8G U10C U11A C12U C13U  1.22
44. G9A U10C C13U  1.23
45. G9A U10A U11A C12G C13U  1.23
46. U8G U10G C13G  1.23
47. G9A U10A U11A C12A C13G  1.25
48. G9A U10G U11C C12A C13U  1.25
49. U8G U11G  1.25
50. G9A U10A U11A C12G C13A  1.26
51. U8G U10C U11C C12U C13G  1.27
52. U8G U10G U11G C12G C13U  1.29
53. G9A U10C C12A C13G  1.29
54. G9A U10C U11C C12A C13U  1.3
55. U8G U10G U11G C12U C13G  1.31
56. G9A U10C U11A C12G C13G  1.31
57. U8G U11A C12U C13U  1.33
58. G9A U10G U11C C12G  1.33
59. U8G U10G U11G C12U C13U  1.34
60. G9A U10C U11A C12G C13U  1.36
61. G9A U10C U11G C12U C13A  1.37
62. G9A C12A C13U  1.38
63. G9A U10C U11G C13U  1.39
64. G9A U10C U11G C13A  1.39
65. G9A U10A U11A C12A C13A  1.4
66. G9A U10C U11G C12U C13U  1.4
67. G9A U10A C13A  1.41
68. U8G U10G U11G C12U C13A  1.42
69. G9A U10C U11G C12U C13G  1.43
70. G9A C12A C13A  1.45
71. G9A U10C C12A C13A  1.46
72. G9A U10C U11A C12G  1.48
73. G9A U10A C13U  1.5
74. G9A U10G U11C C12A  1.53
75. G9A U10A C12G  1.61
76. G9A U10C U11A C12A  1.67
77. G9A U10A C12A  1.74
78. G9A U10C U11A C12U  1.78
79. G9A U10C U11G  1.86
80. G9A U10A C12U  1.86
81. G9A U10A U11A C12A C13U  1.97
82. G9A U10C U11A  2.25
83. U8G U11C  2.46
84. U8G U11A  3.01
